Series [1] addresses MBP-TaCCA1-7D fusion protein (Triticum aestivum (bread wheat)). Description: BLI; ForteBio Octet RED 96e; streptavidin (SA) biosensors loaded with 10.0 ug/ml biotinylated recombinant TaCCA1-7D; TaCCA1-7A or TaCCA1-7B in solution at 10-630 nM, low to high concentration; KD as the ratio of dissociation and association rate constants. For orientation: BLI is a label-free optical method that tracks binding on a fibre tip over time.

Series [2] has as its target T1, MBP-TaCCA1-7D (Triticum aestivum, UniProt A0A3B6TKA2 1-718). Nature of the series: BLI; single-digit nM per text; exact value in Table S6 not in material; EMSA: 150 ng protein, 2 pM DIG probe, 10 ul, 1 h on ice, 6% PAGE in 0.5x TBE pH 8.0; BLI: Octet RED96e, SA sensors with biotinylated TaCCA1-7D; buffers not stated. Particulars: protein: recombinant, tags: MBP (pMAL-c2X, N-terminal), biotinylated for BLI, blunt.

The target of series [3] is T1, MBP-TaCCA1-7D. Nature of the series: BLI; kon 1.35E+05 1/Ms; koff 2.42E-04 1/s; EMSA: 150 ng protein, 2 pM DIG probe, 10 ul, 1 h on ice, 6% PAGE in 0.5x TBE pH 8.0; BLI: Octet RED96e, SA sensors with biotinylated TaCCA1-7D; buffers not stated. The following applies: protein: recombinant; tags: MBP (pMAL-c2X, N-terminal); biotinylated for BLI; label: 5' biotin; blunt.

The mark [4] stands for this setting: label: 5' biotin (BLI), DIG (EMSA).

T1 sequence (A0A3B6TKA2 entry or part of it): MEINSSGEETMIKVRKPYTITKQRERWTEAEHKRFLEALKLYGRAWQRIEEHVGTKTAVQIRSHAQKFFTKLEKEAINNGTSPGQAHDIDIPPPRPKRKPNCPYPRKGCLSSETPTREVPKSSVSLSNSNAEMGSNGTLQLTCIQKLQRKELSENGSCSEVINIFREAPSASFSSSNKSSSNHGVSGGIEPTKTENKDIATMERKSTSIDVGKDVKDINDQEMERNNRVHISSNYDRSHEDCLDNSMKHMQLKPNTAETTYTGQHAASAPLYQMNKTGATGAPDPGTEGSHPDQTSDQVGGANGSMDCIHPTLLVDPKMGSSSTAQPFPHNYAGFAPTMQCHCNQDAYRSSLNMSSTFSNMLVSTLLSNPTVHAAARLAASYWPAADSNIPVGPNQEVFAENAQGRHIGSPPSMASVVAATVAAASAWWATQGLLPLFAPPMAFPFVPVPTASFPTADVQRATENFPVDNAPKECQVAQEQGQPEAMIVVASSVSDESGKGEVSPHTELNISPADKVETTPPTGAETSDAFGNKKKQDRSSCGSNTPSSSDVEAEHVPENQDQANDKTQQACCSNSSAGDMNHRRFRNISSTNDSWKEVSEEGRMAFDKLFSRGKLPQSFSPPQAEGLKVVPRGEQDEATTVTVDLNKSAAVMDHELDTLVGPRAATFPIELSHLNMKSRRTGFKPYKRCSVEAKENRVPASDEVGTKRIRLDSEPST

Regarding TaCCA1-7A (natural protein), in series [1], the Kd (in general, a measure of binding affinity in units of concentration) worked out at 27.8 nM; the koff (usually the first-order rate constant of dissociation) stood at 0.0012 s⁻¹; the on-rate (kon) (in general, the rate constant with which the complex forms) was 43000 M⁻¹ s⁻¹.

Consider TaCCA1-7B (natural protein), for which, in series [1], the Kd turned out to be 3.6 nM, the koff was 0.00133 s⁻¹ and the kon is 368000 M⁻¹ s⁻¹.

B1: DAP-3 (TraesCS2B02G491700 promoter) (dsDNA)
DNA 1: CTTCAGATTTGTTGATATTTTCATATTGCAGACAT
DNA 2: ATGTCTGCAATATGAAAATATCAACAAATCTGAAG
For B1, the Kd with MBP-TaCCA1-7D [2] (setting [4]) is under 10 nM.

B2: DAP-1 (TraesCS1D02G226100 promoter, CHLG) (dsDNA)
DNA 1: TTATATGCCTATATGATATTATGATTTATTTGGTTT
DNA 2: AAACCAAATAAATCATAATATCATATAGGCATATAA
Consider B2, for which the Kd with MBP-TaCCA1-7D [3] amounted to 1.79 nM.

B3: DAP-2 (TraesCS1D02G295200 promoter) (dsDNA)
DNA 1: AAATAGAAAATTACTGATATTTCATCCTTGTGTGAT
DNA 2: ATCACACAAGGATGAAATATCAGTAATTTTCTATTT
As to B3, the Kd in the series with MBP-TaCCA1-7D [2] (setting [4]) was under 10 nM.

B4: DAP-4 (TraesCS3B02G186700 promoter) (dsDNA)
DNA 1: AATAGAAAATTACTGATATTTCATCCTTATGAGATT
DNA 2: AATCTCATAAGGATGAAATATCAGTAATTTTCTATT
Consider B4, for which the dissociation constant Kd with MBP-TaCCA1-7D [2] (label: 5' biotin) is under 10 nM.

These data come from paper PMC9340162, “The Central Circadian Clock Protein TaCCA1 Regulates Seedling Growth and Spike Development in Wheat (Triticum aestivum L.)”.
